From publication PMC3077374

How the values were obtained:
Experiment in all cases: SPR; Biacore 3000; hIgG, hIgM or hIgA amine-coupled to CM-5 chips (10 mM sodium acetate, pH 5.0, 4.5 or 4.0); LD5 or SpA as analyte in serial 1:2 dilutions from 1.25 and 0.8 uM; flow 40 ul/min; NaCl/HEPES with 0.005% surfactant P20; regeneration 100 mM alanine-HCl pH 2.5
human IgA (human) = target: human IgA (human)
human IgG (human) = target: human IgG (human)
human IgM (human) = target: human IgM (human)

## staphylococcal protein A (SpA) (from UniProt P02976 37-485) (natural protein)
Human IgA (human)
  Kd: 7.03 nM
  koff: 0.00292 s⁻¹
  kon: 416000 M⁻¹ s⁻¹
Human IgG (human)
  Ka: 3.45e+09 M⁻¹
  Kd: 0.29 nM
  koff: 4.4e-05 s⁻¹
  kon: 154000 M⁻¹ s⁻¹
Human IgM (human)
  Kd: 7.15 nM
  koff: 0.000817 s⁻¹
  kon: 115000 M⁻¹ s⁻¹
